Measurements as given in US20210214461A1.

Tests used:
[1] = target: pre-existing anti-scFv903 antibodies in human serum H49 (human); assay: competition ADA bridging ELISA
[2] = target: pre-existing anti-scFv903 antibodies in human serum H116 (human); assay: competition ADA bridging ELISA
[3] = target: pre-existing anti-scFv903 antibodies in human serum H15 (human); assay: competition ADA bridging ELISA
[4] = target: pre-existing anti-scFv903 antibodies in human serum H60 (human); assay: competition ADA bridging ELISA
[5] = target: pre-existing anti-scFv903 antibodies in human serum H80 (human); assay: competition ADA bridging ELISA
[6] = target: pre-existing anti-scFv903 antibodies in human serum H63 (human); assay: competition ADA bridging ELISA
[7] = target: pre-existing anti-scFv903 antibodies in human serum H64 (human); assay: competition ADA bridging ELISA
[8] = target: pre-existing anti-scFv903 antibodies in human serum H29 (human); assay: competition ADA bridging ELISA
[9] = target: pre-existing anti-scFv903 antibodies in human serum H81 (human); assay: competition ADA bridging ELISA, 100 mcg/ml competitor
[10] = target: pre-existing anti-scFv903 antibodies in human serum H46 (human); assay: as above
[11] = target: pre-existing anti-scFv903 antibodies in human serum H54 (human); assay: as above
[12] = target: pre-existing anti-scFv903 antibodies in human serum H50 (human); assay: as above
[13] = target: pre-existing anti-scFv903 antibodies in human serum H49 (human); assay: as above
[14] = target: pre-existing anti-scFv903 antibodies in human serum H19 (human); assay: as above
[15] = target: pre-existing anti-scFv903 antibodies in human serum H115 (human); assay: as above
[16] = target: pre-existing anti-scFv903 antibodies in human serum H20 (human); assay: as above
[17] = target: pre-existing anti-scFv903 antibodies in human serum H40 (human); assay: as above
[18] = target: pre-existing anti-scFv903 antibodies in human serum H21 (human); assay: as above
[19] = target: pre-existing anti-scFv903 antibodies in human serum H55 (human); assay: as above
[20] = target: pre-existing anti-scFv903 antibodies in human serum H105 (human); assay: as above
[21] = target: pre-existing anti-scFv903 antibodies in human serum H125 (human); assay: as above
[22] = target: pre-existing anti-scFv903 antibodies in human serum H116 (human); assay: as above
[23] = target: pre-existing anti-scFv903 antibodies in human serum H15 (human); assay: as above
[24] = target: pre-existing anti-scFv903 antibodies in human serum H60 (human); assay: as above
[25] = target: pre-existing anti-scFv903 antibodies in human serum H80 (human); assay: as above
[26] = target: pre-existing anti-scFv903 antibodies in human serum H66 (human); assay: as above
[27] = target: pre-existing anti-scFv903 antibodies in human serum H135 (human); assay: as above
[28] = target: pre-existing anti-scFv903 antibodies in human serum H8 (human); assay: as above
[29] = target: pre-existing anti-scFv903 antibodies in human serum H14 (human); assay: as above
[30] = target: pre-existing anti-scFv903 antibodies in human serum H96 (human); assay: as above
[31] = target: pre-existing anti-scFv903 antibodies in human serum H63 (human); assay: as above
[32] = target: pre-existing anti-scFv903 antibodies in human serum H56 (human); assay: as above
[33] = target: pre-existing anti-scFv903 antibodies in human serum H79 (human); assay: as above
[34] = target: pre-existing anti-scFv903 antibodies in human serum H69 (human); assay: as above
[35] = target: pre-existing anti-scFv903 antibodies in human serum H64 (human); assay: as above
[36] = target: pre-existing anti-scFv903 antibodies in human serum H3 (human); assay: as above
[37] = target: pre-existing anti-scFv903 antibodies in human serum H53 (human); assay: as above
[38] = target: pre-existing anti-scFv903 antibodies in human serum H59 (human); assay: as above
[39] = target: pre-existing anti-scFv903 antibodies in human serum H76 (human); assay: as above
[40] = target: pre-existing anti-scFv903 antibodies in human serum H86 (human); assay: as above
[41] = target: pre-existing anti-scFv903 antibodies in human serum H29 (human); assay: as above
[42] = target: pre-existing anti-scFv903 antibodies in human serum H26 (human); assay: as above

B1: scFv 791 (scFv)
scFv: MEIVMTQSPSTLSASLGDRVIITCQSSQSVYGNIWMAWYQQKSGKAPKLLIYQASKLASGVPSRFSGSGSGAEFSLTISSLQPDDFATYYCQGNFNTGDRYAFGQGTKLTVLGGGGGSGGGGSGGGGSGGGGSEVQLVESGGGLVQPGGSLRLSCTASGFTISRSYWICWVRQAPGKGLEWVACIYGDNDITPLYANWAKGRFPVSTDTSKNTVYLQMNSLRAEDTAVYYCARLGYADYAYDLWGQGTLVTVSS
Question: For B1, which signal change in competition ELISA (% reduction in OD) [1] is on record?
Answer: -81%

Question: What about the signal change in competition ELISA (% reduction in OD) [2] of the same binder?
Answer: -97%

Question: What about the signal change in competition ELISA (% reduction in OD) [3] of the same binder?
Answer: -90%

Question: What about the signal change in competition ELISA (% reduction in OD) [4] of the same binder?
Answer: -95%

Question: What about the signal change in competition ELISA (% reduction in OD) [5] of the same binder?
Answer: -85%

Question: What about the signal change in competition ELISA (% reduction in OD) [6] of the same binder?
Answer: -20%

Question: And the signal change in competition ELISA (% reduction in OD) [7]?
Answer: -96%

Question: And the signal change in competition ELISA (% reduction in OD) [8]?
Answer: -79%

Question: And the % reduction in OD [9]?
Answer: -94.4%

Question: What about the % reduction in OD [10] of the same binder?
Answer: -77.1%

Question: And the % reduction in OD [11]?
Answer: -91.7%

Question: What about the % reduction in OD [12] of the same binder?
Answer: -88.5%

Question: What about the % reduction in OD [13] of the same binder?
Answer: -81.2%

Question: What about the % reduction in OD [14] of the same binder?
Answer: -84.3%

Question: And the % reduction in OD [15]?
Answer: -94.8%

Question: What about the % reduction in OD [16] of the same binder?
Answer: -96.1%

Question: And the % reduction in OD [17]?
Answer: -94.6%

Question: What about the % reduction in OD [18] of the same binder?
Answer: -85.3%

Question: And the % reduction in OD [19]?
Answer: -96%

Question: What about the % reduction in OD [20] of the same binder?
Answer: -96.9%

Question: What about the % reduction in OD [21] of the same binder?
Answer: -97.4%

Question: What about the % reduction in OD [22] of the same binder?
Answer: -97.2%

Question: What about the % reduction in OD [23] of the same binder?
Answer: -90%

Question: What about the % reduction in OD [24] of the same binder?
Answer: -94.8%

Question: What about the % reduction in OD [25] of the same binder?
Answer: -85.3%

Question: And the % reduction in OD [26]?
Answer: -96.4%

Question: And the % reduction in OD [27]?
Answer: -95.2%

Question: What about the % reduction in OD [28] of the same binder?
Answer: -90.7%

Question: And the % reduction in OD [29]?
Answer: -96.5%

Question: And the % reduction in OD [30]?
Answer: -78.5%

Question: What about the % reduction in OD [31] of the same binder?
Answer: -19.7%

Question: And the % reduction in OD [32]?
Answer: -15.1%

Question: And the % reduction in OD [33]?
Answer: -96.8%

Question: And the % reduction in OD [34]?
Answer: -74.7%

Question: And the % reduction in OD [35]?
Answer: -95.5%

Question: And the % reduction in OD [36]?
Answer: -85%

Question: And the % reduction in OD [37]?
Answer: -34.6%

Question: What about the % reduction in OD [38] of the same binder?
Answer: -96.4%

Question: And the % reduction in OD [39]?
Answer: -48.6%

Question: And the % reduction in OD [40]?
Answer: -86.7%

Question: And the % reduction in OD [41]?
Answer: -78.7%

Question: What about the % reduction in OD [42] of the same binder?
Answer: -96.8%

B2: scFv105 (scFv)
scFv: DIVMTQSPSSLSASVGDRVTLTCTASQSVSNDVVWYQQRPGKAPKLLIYSAFNRYTGVPSRFSGRGYGTDFTLTISSLQPEDVAVYYCQQDYNSPRTFGQGTKLEVKRGGGGSGGGGSGGGGSSGGGSQVQLVQSGAEVKKPGASVKVSCTASGYTFTHYGMNWVRQAPGKGLEWMGWINTYTGEPTYADKFKDRFTFSLETSASTVYMELTSLTSDDTAVYYCARERGDAMDYWGQGTLVTVSS
Question: With B2 as the binder, how does the signal change in competition ELISA (% reduction in OD) [1] read?
Answer: -26%

Question: What about the signal change in competition ELISA (% reduction in OD) [2] of the same binder?
Answer: -43%

Question: What about the signal change in competition ELISA (% reduction in OD) [3] of the same binder?
Answer: -69%

Question: And the signal change in competition ELISA (% reduction in OD) [4]?
Answer: -11%

Question: And the signal change in competition ELISA (% reduction in OD) [5]?
Answer: -51%

Question: And the signal change in competition ELISA (% reduction in OD) [6]?
Answer: -80%

Question: And the signal change in competition ELISA (% reduction in OD) [7]?
Answer: -55%

Question: And the signal change in competition ELISA (% reduction in OD) [8]?
Answer: -51%

Question: What about the % reduction in OD [9] of the same binder?
Answer: -18.1%

Question: And the % reduction in OD [10]?
Answer: -66.7%

Question: What about the % reduction in OD [11] of the same binder?
Answer: -61.3%

Question: And the % reduction in OD [12]?
Answer: -31.1%

Question: What about the % reduction in OD [13] of the same binder?
Answer: -26.1%

Question: And the % reduction in OD [14]?
Answer: -73.5%

Question: What about the % reduction in OD [15] of the same binder?
Answer: -60.4%

Question: And the % reduction in OD [16]?
Answer: -18.8%

Question: And the % reduction in OD [17]?
Answer: 3.5%

Question: And the % reduction in OD [18]?
Answer: -3.4%

Question: What about the % reduction in OD [19] of the same binder?
Answer: -71.9%

Question: What about the % reduction in OD [20] of the same binder?
Answer: 2.4%

Question: And the % reduction in OD [21]?
Answer: -55.5%

Question: What about the % reduction in OD [22] of the same binder?
Answer: -43.4%

Question: What about the % reduction in OD [23] of the same binder?
Answer: -69.5%

Question: What about the % reduction in OD [24] of the same binder?
Answer: -10.8%

Question: And the % reduction in OD [25]?
Answer: -50.9%

Question: And the % reduction in OD [26]?
Answer: -2.6%

Question: And the % reduction in OD [27]?
Answer: -23.1%

Question: What about the % reduction in OD [28] of the same binder?
Answer: -23.1%

Question: And the % reduction in OD [29]?
Answer: -3.6%

Question: What about the % reduction in OD [30] of the same binder?
Answer: -29%

Question: And the % reduction in OD [31]?
Answer: -80.5%

Question: What about the % reduction in OD [32] of the same binder?
Answer: -4.8%

Question: What about the % reduction in OD [33] of the same binder?
Answer: -40.5%

Question: What about the % reduction in OD [34] of the same binder?
Answer: -87.6%

Question: What about the % reduction in OD [35] of the same binder?
Answer: -55.5%

Question: What about the % reduction in OD [36] of the same binder?
Answer: -58.8%

Question: What about the % reduction in OD [37] of the same binder?
Answer: -18.4%

Question: What about the % reduction in OD [38] of the same binder?
Answer: -93.7%

Question: What about the % reduction in OD [39] of the same binder?
Answer: -65.7%

Question: What about the % reduction in OD [41] of the same binder?
Answer: -51.4%

Question: What about the % reduction in OD [42] of the same binder?
Answer: -79.9%
